From publication PMC5575937

Columns and labels:
ETV62C-red = molecular target: T1, ETV62C-red (Mus musculus (murine), UniProt P97360 329-446, C334S;A393C;V437C); test: NMR
T1 sequence: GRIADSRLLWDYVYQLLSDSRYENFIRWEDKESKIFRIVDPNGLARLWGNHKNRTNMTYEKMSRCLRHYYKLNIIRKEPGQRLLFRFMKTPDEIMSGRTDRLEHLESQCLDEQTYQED

ETV6H432R = molecular target: T2, ETV6H432R (Mus musculus (murine), UniProt P97360 329-446, C334S;H432R); test: EMSA
T2 sequence: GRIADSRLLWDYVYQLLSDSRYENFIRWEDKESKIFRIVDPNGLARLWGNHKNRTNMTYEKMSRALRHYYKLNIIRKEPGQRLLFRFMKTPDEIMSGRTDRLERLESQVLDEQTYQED

ETV6RAE = molecular target: T3, ETV6RAE (Mus musculus (murine), UniProt P97360 329-446, C334S;H432R;S435A;Q436E); test: EMSA
T3 sequence: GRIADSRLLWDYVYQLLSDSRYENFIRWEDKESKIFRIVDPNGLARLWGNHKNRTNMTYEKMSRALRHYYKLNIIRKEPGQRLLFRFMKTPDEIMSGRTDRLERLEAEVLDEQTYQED

B1: 15-bp ETS consensus duplex (dsDNA)
DNA 1: CAAGCCGGAAGTGAG
DNA 2: CTCACTTCCGGCTTG
B1: binds (ETV62C-red).

B2: 23-bp ETS consensus duplex (dsDNA)
DNA 1: CGGCCAAGCCGGAAGTGAGTGCC
DNA 2: GGCACTCACTTCCGGCTTGGCCG
For B2, the Kd (ETV6H432R) was 30 ± 10 nM and the Kd (ETV6RAE) was 90 ± 10 nM.
